Columns and labels:
[1] = target: FAM-labelled RBBP5 peptide (residues 330–363) mixed with ASH2L(SPRY) (human) (UniProt Q15291); experiment: fluorescence polarisation
MLL3 SET domain = MLL3 SET domain (human, UniProt Q8NEZ4 4757-4911); experiment: crystal structure
Chain of MLL3 SET domain (human, UniProt Q8NEZ4 4757-4911) (Q8NEZ4 4757-4911): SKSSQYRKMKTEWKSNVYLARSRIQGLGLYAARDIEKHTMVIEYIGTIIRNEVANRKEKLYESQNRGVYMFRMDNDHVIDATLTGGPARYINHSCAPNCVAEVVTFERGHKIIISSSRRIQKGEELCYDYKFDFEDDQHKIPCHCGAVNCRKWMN

Chain of MLL3 SET domain (from UniProt Q8NEZ4 4757-4911) (domain or fragment) (Q8NEZ4 4757-4911): as above
Chain of MLL1 SET domain (Q03164 3829-3945): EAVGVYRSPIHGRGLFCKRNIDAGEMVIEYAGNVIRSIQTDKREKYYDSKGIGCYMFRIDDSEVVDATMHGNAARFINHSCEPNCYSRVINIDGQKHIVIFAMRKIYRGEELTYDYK

| Molecule | Kd [1] [µM] | binding result (MLL3 SET domain) |
| --- | --- | --- |
| MLL3 SET domain (from UniProt Q8NEZ4 4757-4911) (domain or fragment) | 0.1 |  |
| MLL1 SET domain (from UniProt Q03164 3829-3945) (domain or fragment) | > 100 |  |
| ARTKQTARK [H3 peptide (H3 residues 1–9)] |  | binds |
